Results on eleven molecules are retold here after patent publication US20030185819A1 (Biogen, published 2003).

In experiment [1] the target is T1, VLA-4 (integrin alpha4 beta1) on the human B cell line Ramos (human, UniProt P13612 34-1032; P05556 21-798).
T1 construct: whole, on cells; also called α4β1; VLA-4-expressing cells
Description: adhesion assay: inhibition of Ramos cell binding to immobilized rsVCAM1 (n = 14). The method, then: (§1) Recombinant soluble VCAM1 was prepared and purified essentially as described by Lobb et al., 1991a. Soluble VCAM is diluted to 10 μg/ml in 0.05 M NaHCO₃, (15 mM NaHCO₃, 35 mM Na₂CO₃) pH 9.2. Then 50 μl/well is added into a Linbro Titertek polystyrene 96 well plate, flat bottom, Flow Labs catalog #76-231-05. The plate is incubated at 4° C. overnight.
(§2) For antibody blocking studies, 100 μl/well of murine HP1/2 MAb (anti-VLA-4) typically at 10 μg/ml in RPMI, 2% FBS are added to the rsVCAM1 coated plates and incubated for 30 minutes at room temperature prior to cell binding as described above. MAb HP1/2 (anti-VLA-4) or any recombinant humanized anti-VLA-4 antibody prepared as described herein must be preincubated with labelled cells for 30 minutes at room temperature prior to the cell binding. Concentrations of the antibodies preincubated will vary, but generally concentrations were in the range of about 1 μg/ml.
In these adhesion assays, murine HP1/2 inhibits Ramos cell binding completely at about 40 ng/ml, and half maximally at about 15 ng/ml ([…]). The results of adhesion assays as represented by the calculated half-maximal binding constants using humanized recombinant anti-VLA-4 antibodies made according to the present invention are shown in Table III. The number-(n) of experiments performed for each value is indicated for the recombinant humanized antibodies.

For experiment [2], the target named is T1, VLA-4 (integrin alpha4 beta1) on the …. Briefly: FACS, half-maximal binding to Ramos cells (n = 6). On the procedure:
(§3) Briefly, 25 μl cells (4×10^6/ml in FACS buffer (PBS 2% FBS, 0.1% NaN₃) on ice are added to 5 μl of 5 μg/ml FITC or phycoerythrin (PE) conjugated antibody in FACS buffer, and incubated in V-bottomed microtiter wells on ice for 30 minutes. To the wells, 125 μl of FACS buffer is added, the plates are centrifuged at 350×g for 5 minutes, and the supernatant is shaken off. To each well is added 125 μl FACS buffer, then the cells are transferred to 12×75 mm Falcon polystyrene tubes and resuspended to a final volume of 250 μl in FACS buffer. The mixture is analyzed on a Becton Dickinson FACStar. The results of the FACS assays as represented by the calculated half-maximal binding […] Using humanized recombinant anti-VLA-4 antibodies made according to the present invention are shown in Table III and the number (n) of experiments performed for each value is indicated for the humanized antibodies. […] Murine HP1/2 binds half-maximally to Ramos cells at 15 ng/ml. The AS/SVMDY humanized antibody binds half-maximally to Ramos cells at 12 ng/ml. Thus, the two assays (i.e., adhesion and FACS assays) show an excellent correlation for the murine antibody and the humanized AS/SVMDY antibody.
On the technique in general: In flow cytometry, cells or beads pass a laser one at a time.

Experiment [3] has the same target. Briefly: potency assay of Example 7; which assay is not stated.
The target is the same in experiment [4]. Briefly: adhesion assay: inhibition of Ramos cell binding to immobilized rsVCAM1. The method, then:
as §1, §2
(§4) The potency of recombinant Stage 0, Stage 1, Stage 2 and Stage 3 antibodies having the VK1 (DQL) light chain that had been purified from stably transfected YB2/0 cell lines was measured in the adhesion assay, as shown in Table III.

Experiment [5] has the same target. Briefly: adhesion assay: inhibition of Ramos cell binding to immobilized rsVCAM1 (n = 2). On the procedure: as §1, §2
The target is the same in experiment [6]. Description: FACS, half-maximal binding to Ramos cells (n = 2). On the procedure: as §3
Experiment [7] has the same target. Briefly: combination of adhesion and FACS assays (n = 3). The method, then:
as §1, §2
as §3, with “Thus, the two assays (i.e., adhesion and FACS assays) show an excellent correlation for the murine antibody and the humanized AS/SVMDY antibody.” left out

The target is the same in experiment [8]. Briefly: FACS, half-maximal binding to Ramos cells (n = 1). On the procedure: as §3
Experiment [9] has the same target. Description: adhesion assay: inhibition of Ramos cell binding to immobilized rsVCAM1 (n = 3). The method, then: as §1, §2, §4
The target is the same in experiment [10]. Description: FACS, half-maximal binding to Ramos cells (n = 3). The method, then: as §3
Experiment [11] has the same target. Briefly: adhesion assay: inhibition of Ramos cell binding to immobilized rsVCAM1 (n = 4). The method, then:
as §1, §2, §4

T1 sequence (P13612 34-1032, chain 1 of 2): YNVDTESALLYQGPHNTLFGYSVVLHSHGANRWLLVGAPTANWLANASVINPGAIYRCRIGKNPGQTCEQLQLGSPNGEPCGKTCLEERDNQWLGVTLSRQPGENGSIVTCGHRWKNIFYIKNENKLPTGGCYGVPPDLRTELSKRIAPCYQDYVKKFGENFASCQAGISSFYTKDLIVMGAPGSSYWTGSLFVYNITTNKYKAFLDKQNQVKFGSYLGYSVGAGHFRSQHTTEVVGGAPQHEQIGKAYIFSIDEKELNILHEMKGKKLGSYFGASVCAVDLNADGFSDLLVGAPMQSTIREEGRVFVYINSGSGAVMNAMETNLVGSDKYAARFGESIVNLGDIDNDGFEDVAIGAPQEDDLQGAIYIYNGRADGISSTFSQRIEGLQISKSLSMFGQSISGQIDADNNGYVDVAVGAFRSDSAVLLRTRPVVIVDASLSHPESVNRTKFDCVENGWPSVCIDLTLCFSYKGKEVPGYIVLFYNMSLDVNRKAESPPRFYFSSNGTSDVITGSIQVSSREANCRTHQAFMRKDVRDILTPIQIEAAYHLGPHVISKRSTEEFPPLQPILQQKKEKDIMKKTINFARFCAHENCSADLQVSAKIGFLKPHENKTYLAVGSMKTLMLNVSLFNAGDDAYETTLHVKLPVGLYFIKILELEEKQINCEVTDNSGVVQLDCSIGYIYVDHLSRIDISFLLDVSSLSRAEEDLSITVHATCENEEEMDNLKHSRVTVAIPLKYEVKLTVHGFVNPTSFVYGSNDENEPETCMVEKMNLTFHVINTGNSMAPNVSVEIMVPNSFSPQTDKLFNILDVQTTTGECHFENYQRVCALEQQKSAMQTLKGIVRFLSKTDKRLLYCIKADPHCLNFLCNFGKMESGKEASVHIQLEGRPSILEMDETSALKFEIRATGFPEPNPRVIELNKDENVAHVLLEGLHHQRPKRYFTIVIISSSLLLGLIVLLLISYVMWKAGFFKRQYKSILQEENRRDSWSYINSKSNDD
T1 sequence (P05556 21-798, chain 2 of 2): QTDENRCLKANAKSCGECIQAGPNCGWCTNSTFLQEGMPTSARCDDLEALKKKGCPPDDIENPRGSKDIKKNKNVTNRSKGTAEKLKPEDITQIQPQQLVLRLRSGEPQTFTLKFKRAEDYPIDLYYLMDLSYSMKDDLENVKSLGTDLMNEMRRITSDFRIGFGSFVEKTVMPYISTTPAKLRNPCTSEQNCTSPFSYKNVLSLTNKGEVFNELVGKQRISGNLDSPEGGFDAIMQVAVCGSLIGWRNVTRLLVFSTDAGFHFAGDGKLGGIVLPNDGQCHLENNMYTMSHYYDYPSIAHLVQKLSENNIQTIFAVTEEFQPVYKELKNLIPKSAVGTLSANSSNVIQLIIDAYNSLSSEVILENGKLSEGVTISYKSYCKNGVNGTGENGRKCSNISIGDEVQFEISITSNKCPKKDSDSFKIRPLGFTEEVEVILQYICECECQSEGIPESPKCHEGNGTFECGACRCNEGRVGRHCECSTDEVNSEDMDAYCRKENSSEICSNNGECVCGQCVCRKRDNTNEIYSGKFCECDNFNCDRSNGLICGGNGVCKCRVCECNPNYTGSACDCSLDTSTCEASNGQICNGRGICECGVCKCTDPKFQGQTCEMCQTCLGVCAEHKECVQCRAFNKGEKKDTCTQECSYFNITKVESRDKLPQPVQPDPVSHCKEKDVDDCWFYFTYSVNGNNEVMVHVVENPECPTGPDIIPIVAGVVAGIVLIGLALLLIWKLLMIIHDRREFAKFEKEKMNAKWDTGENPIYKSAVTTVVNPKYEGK

B1: Stage 2 (Ser mutant) humanized anti-VLA-4 antibody with VK1 (DQL) light chain (antibody, V domains shown)
VH: QVQLQESGPGLVRPSQTLSLTCTVSGFNIKDTYMHWVRQPPGRGLEWIGRIDPASGDTKYDPKFQVRVTMLVDTSSNQFSLRLSSVTAADTAVYYCADGMWVSTGYALDFWGQGTTVTVSS
VL: DIQLTQSPSSLSASVGDRVTITCKASQSVTNDVAWYQQKPGKAPKLLIYYASNRYTGVPSRFSGSGSGTDFTFTISSLQPEDIATYYCQQDYSSPYTFGQGTKVEIKR
notes: Human IgG1 or IgG4 / kappa; also called Sage 2 (Ser mutant); S mutant
The term IC50 denotes the concentration needed to halve the response being measured. Read a low IC50 as greater potency in that assay. By EC50 is commonly meant the concentration that produces a half-maximal response. A higher EC50 goes with a need for much substance. For the molecule B1, the half-inhibitory concentration (IC50) in experiment [1] is 0.056 µg/mL. Further, a half-maximal effect in experiment [2] (EC50) was put at 0.047 µg/mL. Moreover, in experiment [3], the “fold lower potency than murine HP1/2” value is approximately 4 fold.

B2: humanized heavy chain of the Stage 2 construct (the Ser mutant) with murine light chain (antibody, V domains shown)
VH: QVQLQESGPGLVRPSQTLSLTCTVSGFNIKDTYMHWVRQPPGRGLEWIGRIDPASGDTKYDPKFQVRVTMLVDTSSNQFSLRLSSVTAADTAVYYCADGMWVSTGYALDFWGQGTTVTVSS
VL: SIVMTQTPKFLLVSAGDRVTITCKASQSVTNDVAWYQQKPGQSPKLLIYYASNRYTGVPDRFTGSGYGTDFTFTISTVQAEDLAVYFCQQDYSSPYTFGGGTKLEI
notes: also called Stage 2 heavy chain / murine light chain
Turning to B2, in experiment [3], the “fold lower potency than murine HP1/2” value is approximately 2.5 fold.

B3: Stage 0-B humanized anti-VLA-4 antibody with VK1 (DQL) light chain (antibody, V domains shown)
VH: QVQLQESGPGLVRPSQTLSLTCTVSGFTFSDTYMHWVRQPPGRGLEWIGRIDPASGDTKYDPKFQVRVTMLVDTSKNQFSLRLSSVTAADTAVYYCADGMWVSTGYALDFWGQGTTVTVSS
VL: DIQLTQSPSSLSASVGDRVTITCKASQSVTNDVAWYQQKPGKAPKLLIYYASNRYTGVPSRFSGSGSGTDFTFTISSLQPEDIATYYCQQDYSSPYTFGQGTKVEIK
notes: Human IgG1 or IgG4 heavy and human kappa constant regions; also called STAGE O-B; Stage 0 (Humanized heavy chain)
On to B3, for which the IC50 in [4] was more than 1 µg/mL.

B4: Stage 3 AS humanized anti-VLA-4 antibody with VK1 (DQL) light chain (antibody, V domains shown)
VH: QVQLQESGPGLVRPSQTLSLTCTASGFNIKDTYMHWVRQPPGRGLEWIGRIDPASGDTKYDPKFQVRVTMLVDTSSNQFSLRLSSVTAADTAVYYCADGMWVSTGYALDFWGQGTTVTVSS
VL: DIQLTQSPSSLSASVGDRVTITCKASQSVTNDVAWYQQKPGKAPKLLIYYASNRYTGVPSRFSGSGSGTDFTFTISSLQPEDIATYYCQQDYSSPYTFGQGTKVEIKR
notes: Human IgG1 or IgG4 / kappa; also called VH-AS
As to B4, in experiment [5], the concentration for half-maximal inhibition (IC50) was 0.028 µg/mL. The molecule further registered an EC50 in [6] of 0.014 µg/mL.

B5: Stage 3 KAITAS humanized anti-VLA-4 antibody with VK1 (DQL) light chain (antibody, V domains shown)
VH: QVQLQESGPGLVRPSQTLSLTCTVSGFNIKDTYMHWVRQPPGRGLEWIGRIDPASGDTKYDPKFQVKATITADTSSNQFSLRLSSVTAADTAVYYCADGMWVSTGYALDFWGQGTTVTVSS
VL: DIQLTQSPSSLSASVGDRVTITCKASQSVTNDVAWYQQKPGKAPKLLIYYASNRYTGVPSRFSGSGSGTDFTFTISSLQPEDIATYYCQQDYSSPYTFGQGTKVEIKR
notes: Human IgG1 or IgG4 / kappa; also called VH-KAITAS
In the case of B5, the “half-maximal binding constant (adhesion and FACS combined)” value (from here on “half-maximal binding constant”) in [7] stood at 90 ng/mL. The IC50 in experiment [5] was determined as 0.085 µg/mL. In experiment [8], this molecule displayed an EC50 of 0.1 µg/mL.

B6: Stage 3 KRS humanized anti-VLA-4 antibody with VK1 (DQL) light chain (antibody, V domains shown)
VH: QVQLQESGPGLVRPSQTLSLTCTVSGFNIKDTYMHWVKQRPGRGLEWIGRIDPASGDTKYDPKFQVRVTMLVDTSSNQFSLRLSSVTAADTAVYYCADGMWVSTGYALDFWGQGTTVTVSS
VL: DIQLTQSPSSLSASVGDRVTITCKASQSVTNDVAWYQQKPGKAPKLLIYYASNRYTGVPSRFSGSGSGTDFTFTISSLQPEDIATYYCQQDYSSPYTFGQGTKVEIKR
notes: Human IgG1 or IgG4 / kappa; also called VH-KRS
For the molecule B6, the “half-maximal binding constant” value in experiment [7] turned out to be 57 ng/mL. In experiment [5], the IC50 was determined as 0.05 µg/mL. Further, the EC50 in experiment [8] stood at 0.07 µg/mL.

B7: Stage 3 STAW humanized anti-VLA-4 antibody with VK1 (DQL) light chain (antibody, V domains shown)
VH: QVQLQESGPGLVRPSQTLSLTCTVSGFNIKDTYMHWVRQPPGRGLEWIGRIDPASGDTKYDPKFQVRVTMLVDTSSNTAWLRLSSVTAADTAVYYCADGMWVSTGYALDFWGQGTTVTVSS
VL: DIQLTQSPSSLSASVGDRVTITCKASQSVTNDVAWYQQKPGKAPKLLIYYASNRYTGVPSRFSGSGSGTDFTFTISSLQPEDIATYYCQQDYSSPYTFGQGTKVEIKR
notes: Human IgG1 or IgG4 / kappa; also called VH-STAW
With B7, in experiment [9], the half-maximal inhibitory concentration (IC50) amounted to 0.03 µg/mL. In experiment [10], this molecule registered an EC50 of 0.033 µg/mL.

B8: Stage 0-C humanized anti-VLA-4 antibody with VK1 (DQL) light chain (antibody, V domains shown)
VH: QVQLQESGPGLVRPSQTLSLTCTVSGFTFSDTYMHWVRQPPGRGLEWIGRIDPASGDTKYDPKFQVRVTMLVDTSKNQFSLRLSSVTAADTAVYYCARGMWVSTGYALDFWGQGTTVTVSS
VL: DIQLTQSPSSLSASVGDRVTITCKASQSVTNDVAWYQQKPGKAPKLLIYYASNRYTGVPSRFSGSGSGTDFTFTISSLQPEDIATYYCQQDYSSPYTFGQGTKVEIK
notes: Generated from Stage 0-A, which is Stage 1 with D94R; Kabat position 94 is linear position 98 of the humanized VH entries (CDR3 = 99-110); Human IgG1 or IgG4 / kappa; also called STAGE O-C; Stage 0 (Humanized heavy chain)
With B8, in [4], the IC50 is more than 1 µg/mL.

B9: STAW/SVMDY humanized anti-VLA-4 antibody (antibody, V domains shown)
VH: QVQLQESGPGLVRPSQTLSLTCTVSGFNIKDTYMHWVRQPPGRGLEWIGRIDPASGDTKYDPKFQVRVTMLVDTSSNTAWLRLSSVTAADTAVYYCADGMWVSTGYALDFWGQGTTVTVSS
VL: SIVMTQSPSSLSASVGDRVTITCKASQSVTNDVAWYQQKPGKAPKLLIYYASNRYTGVPDRFSGSGYGTDFTFTISSLQPEDIATYYCQQDYSSPYTFGQGTKVEIKR
notes: Human IgG1 or IgG4 / kappa; also called STAW with VK2 (SVMDY) light chain
B9 displayed an EC50 in experiment [10] of 0.035 µg/mL. In addition, the 50% inhibitory concentration (IC50) in [11] was determined as 0.025 µg/mL.

B10: AS/SVMDY humanized anti-VLA-4 antibody (antibody, V domains shown)
VH: QVQLQESGPGLVRPSQTLSLTCTASGFNIKDTYMHWVRQPPGRGLEWIGRIDPASGDTKYDPKFQVRVTMLVDTSSNQFSLRLSSVTAADTAVYYCADGMWVSTGYALDFWGQGTTVTVSS
VL: SIVMTQSPSSLSASVGDRVTITCKASQSVTNDVAWYQQKPGKAPKLLIYYASNRYTGVPDRFSGSGYGTDFTFTISSLQPEDIATYYCQQDYSSPYTFGQGTKVEIKR
notes: Human IgG1 or IgG4 / kappa; also called AS mutant heavy chain combined with the improved light chain (SVMDY); antibody produced by ATCC CRL 11175
B10 yielded an IC50 in [5] of 0.012 µg/mL. In experiment [6], this molecule displayed a half-maximal effective concentration (EC50) of 0.012 µg/mL.

B11: Stage 3 SSE humanized anti-VLA-4 antibody with VK1 (DQL) light chain (antibody, V domains shown)
VH: QVQLQESGPGLVRPSQTLSLTCTVSGFNIKDTYMHWVRQPPGRGLEWIGRIDPASGDTKYDPKFQVRVTMLVDTSSNQFSLRLSSVTSEDTAVYYCADGMWVSTGYALDFWGQGTTVTVSS
VL: DIQLTQSPSSLSASVGDRVTITCKASQSVTNDVAWYQQKPGKAPKLLIYYASNRYTGVPSRFSGSGSGTDFTFTISSLQPEDIATYYCQQDYSSPYTFGQGTKVEIKR
notes: Human IgG1 or IgG4 / kappa; also called VH-SSE
Consider B11, for which the “half-maximal binding constant” value in experiment [7] is 80 ng/mL. In experiment [5], this molecule came in with an IC50 of 0.1 µg/mL. For the same molecule, the response in experiment [8] was half-maximal at 0.04 µg/mL (EC50).
